Target: T1, HPK1 intact citron homology domain fragment (C428-E821), untagged, Q92918-2
T1 chain: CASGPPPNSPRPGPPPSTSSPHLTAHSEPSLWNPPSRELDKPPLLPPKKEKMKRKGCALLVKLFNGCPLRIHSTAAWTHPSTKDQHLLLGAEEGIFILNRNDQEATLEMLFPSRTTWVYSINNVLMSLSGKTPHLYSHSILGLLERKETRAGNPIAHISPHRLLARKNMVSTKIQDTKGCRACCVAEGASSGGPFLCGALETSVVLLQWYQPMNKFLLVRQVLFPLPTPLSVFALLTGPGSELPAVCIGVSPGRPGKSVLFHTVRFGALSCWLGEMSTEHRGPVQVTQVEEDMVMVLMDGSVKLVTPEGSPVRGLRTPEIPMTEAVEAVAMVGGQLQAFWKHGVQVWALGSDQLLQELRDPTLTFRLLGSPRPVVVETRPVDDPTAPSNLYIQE
Assay: SPR
Settings: chain shown with the change; left plot; plateau of the last (highest) of five successive CHD injections, about 800-900 s; CHD concentrations not given; read off a plot

response (Response Units): 42
B1: HPK1 kinase domain wild type (D2-N293) S171A (protein)
chain: DVVDPDIFNRDPRDHYDLLQRLGGGTYGEVFKARDKVSGDLVALKMVKMEPDDDVSTLQKEILILKTCRHANIVAYHGSYLWLQKLWICMEFCGAGSLQDIYQVTGSLSELQISYVCREVLQGLAYLHSQKKIHRDIKGANILINDAGEVRLADFGISAQIGATLARRLAFIGTPYWMAPEVAAVALKGGYNELCDIWSLGITAIELAELQPPLFDVHPLRVLFLMTKSGYQPPRLKEKGKWSAAFHNFIKVTLTKSPKKRPSATKMLSHQLVSQPGLNRGLILDLLDKLKN

Reference: PMC11066036
